Reference: patent publication US20150259380A1 (SANFORD BURNHAM MEDICAL RESEARCH INSTITUTE, published 2015)
Ends that are not written are not given here.

B1: LyP-1 phage (T7 phage displaying full-length LyP-1, CGNKRTRGC) (peptide)
peptide: CGNKRTRGC
modifications: also: cyclic nonapeptide, ring not given here, displayed on T7 phage
notes: LyP-1 is described as a cyclic nonapeptide; also called intact LyP-1

Columns and labels:
[1] = biological target: T1, recombinant human NRP2 Fc chimera (R&D), purified (human, UniProt O60462 23-864); test: phage binding to NRP2-coated microtiter wells, plaque titration (FIG. 3A)
T1 construct: Bought Fc chimera; also called purified NRP2; neuropilin-2; Fc part of the bought chimera not given; not described
T1 sequence (looked up): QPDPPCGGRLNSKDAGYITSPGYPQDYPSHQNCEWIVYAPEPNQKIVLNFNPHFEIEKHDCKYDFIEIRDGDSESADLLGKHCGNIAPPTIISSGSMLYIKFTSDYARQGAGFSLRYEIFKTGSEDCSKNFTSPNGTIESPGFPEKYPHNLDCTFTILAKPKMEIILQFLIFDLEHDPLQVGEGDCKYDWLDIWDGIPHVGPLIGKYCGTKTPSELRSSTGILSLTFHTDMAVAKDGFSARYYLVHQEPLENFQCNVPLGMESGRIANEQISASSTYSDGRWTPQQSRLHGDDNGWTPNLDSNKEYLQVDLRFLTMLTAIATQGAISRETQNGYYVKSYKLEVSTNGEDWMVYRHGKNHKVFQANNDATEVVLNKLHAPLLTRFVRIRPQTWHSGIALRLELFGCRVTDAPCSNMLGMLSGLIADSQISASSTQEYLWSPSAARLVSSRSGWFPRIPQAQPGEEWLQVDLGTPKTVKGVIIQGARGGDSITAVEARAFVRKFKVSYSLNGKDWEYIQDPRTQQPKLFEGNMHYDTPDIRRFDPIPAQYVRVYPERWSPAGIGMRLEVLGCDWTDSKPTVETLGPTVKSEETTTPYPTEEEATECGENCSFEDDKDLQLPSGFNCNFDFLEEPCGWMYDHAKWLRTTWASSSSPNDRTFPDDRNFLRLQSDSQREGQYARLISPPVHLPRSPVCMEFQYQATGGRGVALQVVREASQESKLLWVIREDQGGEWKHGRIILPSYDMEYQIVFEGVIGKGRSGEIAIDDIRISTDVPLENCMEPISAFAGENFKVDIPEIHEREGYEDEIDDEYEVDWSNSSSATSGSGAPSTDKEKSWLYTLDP
Procedure: B. MDA-MB-435 cells were incubated with phage at 4° C. to assess NRP2 binding. […] Binding is expressed as percentage of binding in control conditions. (mean±SEM; n=4/group; * p<0.05; **, p<0.01).
(§1) Microtiter wells (Costar) were coated with 5 μg/mL of purified NRP1 or NRP2, blocked with PBS supplemented with 0.5% BSA and incubated with 10⁸ plaque-forming units (pfu) of phage in 100 μL of PBS/0.05% Tween 20 for 20 h at 37° C. After six washes in PBS/0.05% Tween 20, bound phage was eluted with 200 μL of 1 M Tris-HCl (pH 7.5)/0.5% SDS for 30 min and quantified by a plaque assay (titration).

[2] = biological target: T2, recombinant human NRP1 (R&D), purified (human, UniProt O14786-2 22-644, limits assumed); test: phage binding to NRP1-coated microtiter wells, plaque titration (FIG. 2)
T2 construct: Bought protein; also called purified NRP1; immobilized NRP1
T2 sequence (looked up): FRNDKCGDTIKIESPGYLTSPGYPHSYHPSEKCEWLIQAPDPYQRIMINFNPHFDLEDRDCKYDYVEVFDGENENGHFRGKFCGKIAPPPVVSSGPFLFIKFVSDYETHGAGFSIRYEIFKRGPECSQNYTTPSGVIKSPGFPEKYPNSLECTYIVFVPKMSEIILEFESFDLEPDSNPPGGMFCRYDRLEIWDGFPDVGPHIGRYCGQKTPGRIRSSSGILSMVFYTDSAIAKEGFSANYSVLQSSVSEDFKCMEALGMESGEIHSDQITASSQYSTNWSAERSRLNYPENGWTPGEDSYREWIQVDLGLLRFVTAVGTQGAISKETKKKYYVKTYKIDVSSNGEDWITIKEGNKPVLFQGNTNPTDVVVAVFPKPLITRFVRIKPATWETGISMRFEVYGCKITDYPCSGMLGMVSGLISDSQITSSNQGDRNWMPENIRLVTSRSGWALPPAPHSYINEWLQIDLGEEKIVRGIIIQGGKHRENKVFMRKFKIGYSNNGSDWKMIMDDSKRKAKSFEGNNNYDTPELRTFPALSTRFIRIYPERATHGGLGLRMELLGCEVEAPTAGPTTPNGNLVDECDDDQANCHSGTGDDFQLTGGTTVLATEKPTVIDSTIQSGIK
Procedure: as §1

[3] = biological target: T3, NRP1 on human tumor cells (DU145 prostate carcinoma cells; PPC1 prostate tumor cells) (human, UniProt O14786 22-923); test: 10^9 pfu phage on cultured PPC1 cells, anti-T7 staining, confocal microscopy
T3 construct: whole, on cells; DU145 express NRP1 but not NRP2; PPC1 express very high NRP1 and low NRP2; also called neuropilin-1; CendR receptor
Procedure: Phage were detected by staining with anti-T7 phage polyclonal antibody. Nuclei were stained with DAPI. […] Cells were co-stained for NRP1 and nuclei were stained with DAPI. […] Non-conjugated neutravidin was used as a control. Nuclei were stained with DAPI. Cells were analyzed by confocal microscopy.

[4] = biological target: T3, NRP1 on human tumor cells (DU145 …); test: phage binding to DU145 cells at 4 C with or without anti-NRP1 (FIG. 1B)
[5] = biological target: T4, p32 in 4T1 breast tumor extracts (mouse, UniProt O35658 71-278); test: affinity chromatography of 4T1 tumor extracts on immobilized tLyP-1
T4 construct: Endogenous protein from tumor extract
T4 sequence (looked up): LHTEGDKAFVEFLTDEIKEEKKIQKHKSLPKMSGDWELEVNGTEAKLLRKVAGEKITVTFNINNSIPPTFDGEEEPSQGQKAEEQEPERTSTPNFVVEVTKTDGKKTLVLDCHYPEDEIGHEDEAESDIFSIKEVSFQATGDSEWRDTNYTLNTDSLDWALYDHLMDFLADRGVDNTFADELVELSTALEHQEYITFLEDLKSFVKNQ

| Binder | binding as fold over control (insertless) phage [1] [fold] | binding as fold over control (insertless) phage [2] [fold] | binding result [4] | other results |
| --- | --- | --- | --- | --- |
| B1 | 0.6 | 1.6 | – | binding result [1]: no binding; binding result [2]: no binding; binding result [3]: no binding |
| CGNKR [CGNKR phage (truncated LyP-1, amino acids 1-5 of SEQ ID NO:10)] | – | – | no binding | – |
| CGNKRTR (also called CGNKRTR phage; phage tLyP-1) [tLyP-1 phage (T7 phage displaying CGNKRTR, truncated LyP-1)] | 8 | 119 | – | binding as fold over insertless control phage [2]: ~120 fold |
| CGNKRTR (the coupling is not described) [tLyP-1 affinity matrix (immobilized tLyP-1 peptide)] | – | – | – | binding result [5]: no binding |
| CGNK [CGNK phage (truncated LyP-1, amino acids 1-4 of SEQ ID NO:10)] | – | – | no binding | – |
| RPARPAR [RPARPAR phage (T7 phage displaying the prototypic CendR peptide RPARPAR)] | 29 | 276 | – | binding ratio over the control phage [2]: 280 fold |
